Test [1] addresses T1, GDF8 (Homo sapiens, UniProt O14793).
T1 sequence (O14793 267-375): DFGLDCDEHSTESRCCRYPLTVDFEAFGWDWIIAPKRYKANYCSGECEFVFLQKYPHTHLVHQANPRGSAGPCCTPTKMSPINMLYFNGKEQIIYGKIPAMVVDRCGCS
Briefly: Biacore ligand binding profile, ALK4-Fc:ActRIIB-Fc heterodimer vs homodimers, anti-Fc capture (Example 13, Table 13).

Test [2] concerns the target T2, BMP6 (Homo sapiens, UniProt P22004).
T2 sequence (P22004 375-513): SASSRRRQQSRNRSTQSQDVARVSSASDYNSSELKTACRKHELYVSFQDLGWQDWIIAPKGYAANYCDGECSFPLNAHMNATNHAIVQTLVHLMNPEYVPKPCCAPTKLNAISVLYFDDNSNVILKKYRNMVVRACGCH
Described as above.

Test [3] addresses T3, GDF11 (Homo sapiens, UniProt O95390).
T3 sequence (O95390 299-407): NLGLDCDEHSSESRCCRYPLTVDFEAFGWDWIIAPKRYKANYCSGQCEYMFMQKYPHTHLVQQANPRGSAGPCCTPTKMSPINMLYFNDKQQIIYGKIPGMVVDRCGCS
The description is as above.

The target in test [4] is T4, activin B (Homo sapiens, UniProt P09529).
T4 sequence (P09529 293-407): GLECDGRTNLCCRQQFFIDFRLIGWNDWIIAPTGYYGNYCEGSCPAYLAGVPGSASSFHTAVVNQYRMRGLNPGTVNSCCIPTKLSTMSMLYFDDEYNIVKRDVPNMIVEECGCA
The description is as above.

For test [5], the system named is rat model of pulmonary arterial hypertension (PAH), monocrotaline-induced. The experiment in a line: Monocrotaline (MCT) rat model of pulmonary arterial hypertension. The format is in vivo, Sprague Dawley rats. The conditions noted are these: MCT rats, compared to monocrotaline treated rats (vehicle). The protocol:
The effects of an ActRIIA-mFc fusion protein (ActRIIA-mFc homodimer as described in Example 1), an ALK4-Fc-ActRIIB-Fc heterodimer (as described in Examples 12 and 13), and sildenafil (a phosphodiesterase-5 inhibitor approved for the treatment of PAH) were examined in a rat model of pulmonary arterial hypertension (PAH). In this model, Sprague Dawley rats received a […] injection of monocrotaline (MCT) to induce PAH 24 hours prior to start of therapy.
Rats were separated into different treatment groups (10 mice per group): 1) treatment with MCT (60 mg/kg administered i.p. as a single dose at day 1 of study) and Tris buffered saline (i.p. as 1 ml/kg, every three days) (vehicle treatment group), 2) treatment with an ActRIIA-mFc polypeptide (10 mg/kg administered i.p. every three days) and MCT (60 mg/kg administered i.p. as a single dose at day 1 of study), 3) treatment with an ALK4-Fc:ActRIIB-Fc heterodimer (10 mg/kg administered i.p. every three days) and MCT (60 mg/kg administered i.p. as a single dose at day 1 of study), 4) treatment with sildenafil (30 mg/kg administered orally twice daily) and MCT (60 mg/kg administered i.p. as a single dose at day 1 of study), and 5) control rats (Tris buffered saline administered i.p. as 1 ml/kg, every three days). Rats were treated for 28 days. Body weights were recorded prior to first dose on Day 1 and then weekly throughout the study.
On day 28, rats were anesthetized by an intraperitoneal injection of ketamine/xylazine (80/10 mg/kg). An incision was made in the neck, and a jugular vein was isolated and ligated anteriorly. A fluid-filled pressure catheter was introduced into the right jugular vein to measure pulmonary artery pressure (PAP). Another incision was made in the inguinal region, and femoral artery was isolated and ligated anteriorly. […] Mean arterial pressure and right PAP were monitored using the Notocord HEM (Croissy sur Seine, Frnace) v3.5 data capture system for approximately 5-10 minutes until stable measurements were obtained. During the measurements, rats were maintained at approximately 37° C. on a heating pad and body temperature was monitored throughout the procedure with a rectal temperature probe. […] Hypertrophy was assessed, in part, by calculating RV/LV+S. The lungs were also weighed.
Similar trends were observed on vessel muscularity based on histopathologic scoring. […] Pulmonary arterioles from vehicle treated rats were determined to be 62.3% completely muscularized, 36.4% partially muscularized, and 1.4% non-muscularized. […] Histopathological scoring of smooth muscle hypertrophy of pulmonary arterioles were also recorded as follows: 0 (normal), 1 (minimal), 2 (mild), 3 (moderate), or 4 (marked).

Results on one molecule are retold here after US20230129812A1, “COMPOSITIONS AND METHODS FOR TREATING PULMONARY HYPERTENSION” (Acceleron Pharma Inc., priority 2020, published 2023).

B1: ALK4-Fc:ActRIIB-Fc heterodimer: heteromeric complex of extracellular domains of human ActRIIB and human ALK4, each separately fused to an Fc domain with a linker (protein)
chain 1: GRGEAETRECIYYNANWELERTNQSGLERCEGEQDKRLHCYASWRNSSGTIELVKKGCWLDDFNCYDRQECVATEENPQVYFCCCEGNFCNERFTHLPEAGGPEVTYEPPPTAPTGGGTHTCPPCPAPELLGGPSVFLFPPKPKDTLMISRTPEVTCVVVDVSHEDPEVKFNWYVDGVEVHNAKTKPREEQYNSTYRVVSVLTVLHQDWLNGKEYKCKVSNKALPAPIEKTISKAKGQPREPQVYTLPPSRKEMTKNQVSLTCLVKGFYPSDIAVEWESNGQPENNYKTTPPVLKSDGSFFLYSKLTVDKSRWQQGNVFSCSVMHEALHNHYTQKSLSLSPGK
chain 2: SGPRGVQALLCACTSCLQANYTCETDGACMVSIFNLDGMEHHVRTCIPKVELVPAGKPFYCLSSEDLRNTHCCYTDYCNRIDLRVPSGHLKEPEHPSMWGPVETGGGTHTCPPCPAPELLGGPSVFLFPPKPKDTLMISRTPEVTCVVVDVSHEDPEVKFNWYVDGVEVHNAKTKPREEQYNSTYRVVSVLTVLHQDWLNGKEYKCKVSNKALPAPIEKTISKAKGQPREPQVYTLPPSREEMTKNQVSLTCLVKGFYPSDIAVEWESNGQPENNYDTTPPVLDSDGSFFLYSDLTVDKSRWQQGNVFSCSVMHEALHNHYTQKSLSLSPG
For the molecule B1, the “GDF8 binding” value in test [1] (Example 13) is “strong binding”. In addition, the ka in test [1] (ligand GDF8, Table 13) came to 390000 M⁻¹ s⁻¹; in test [2] (ligand BMP6, Table 13), 2e+06 M⁻¹ s⁻¹; in test [3] (ligand GDF11, Table 13) it was 3.8e+07 M⁻¹ s⁻¹; in test [4] (ligand Activin B, Table 13) it was 7.1e+06 M⁻¹ s⁻¹. Besides, the kd in test [1] (ligand GDF8, Table 13) came out at 0.00021 s⁻¹; in test [2] (ligand BMP6, Table 13) it was 0.0055 s⁻¹; in test [3] (ligand GDF11, Table 13) it was 0.00011 s⁻¹; in test [4] (ligand Activin B, Table 13) it was 4e-05 s⁻¹. In addition, the “BMP6 binding” value in test [2] (Example 13) was “intermediate-level binding”. The “GDF11 binding” value in test [3] (Example 13) is reported as “strong binding”. For the same molecule, the “activin B binding” value in test [4] (Example 13) is on record as “enhanced binding to activin B compared with either homodimer”. In test [5] (28 days), the “improvement in body weight” value was “+5.1%”. For the same molecule, the “decrease of right heart hypertrophy” value in test [5] (day 28, RV/LV+S) was 39.6%. The “decrease of lung weight” value in test [5] (day 28) is recorded as 19.0%. Further, the “reduction of elevated PAP” value in test [5] (day 28) came to 44.6%.
